B1: Proliferation-associated protein 2G4 (Homo sapiens), Q9UQ80 (parent)
chain: MSGEDEQQEQTIAEDLVVTKYKMGGDIANRVLRSLVEASSSGVSVLSLCEKGDAMIMEETGKIFKKEKEMKKGIAFPTSISVNNCVCHFSPLKSDQDYILKEGDLVKIDLGVHVDGFIANVAHTFVVDVAQGTQVTGRKADVIKAAHLCAEAALRLVKPGNQNTQVTEAWNKVAHSFNCTPIEGMLSHQLKQHVIDGEKTIIQNPTDQQKKDHEKAEFEVHEVYAVDVLVSSGEGKAKDAGQRTTIYKRDPSKQYGLKMKTSRAFFSEVERRFDAMPFTLRAFEDEKKARMGVVECAKHELLQPFNVLYEKEGEFVAQFKFTVLLMPNGPMRITSGPFEPDLYKSEMEVQDAELKALLQSSASRKTQKKKKKKASKTAENATSGETLEENEAGD

Variants of: B1
Conditions: with erbb3_rat Erbb3, Q62799
Chain of erbb3_rat Erbb3, Q62799 (Q62799 whole entry): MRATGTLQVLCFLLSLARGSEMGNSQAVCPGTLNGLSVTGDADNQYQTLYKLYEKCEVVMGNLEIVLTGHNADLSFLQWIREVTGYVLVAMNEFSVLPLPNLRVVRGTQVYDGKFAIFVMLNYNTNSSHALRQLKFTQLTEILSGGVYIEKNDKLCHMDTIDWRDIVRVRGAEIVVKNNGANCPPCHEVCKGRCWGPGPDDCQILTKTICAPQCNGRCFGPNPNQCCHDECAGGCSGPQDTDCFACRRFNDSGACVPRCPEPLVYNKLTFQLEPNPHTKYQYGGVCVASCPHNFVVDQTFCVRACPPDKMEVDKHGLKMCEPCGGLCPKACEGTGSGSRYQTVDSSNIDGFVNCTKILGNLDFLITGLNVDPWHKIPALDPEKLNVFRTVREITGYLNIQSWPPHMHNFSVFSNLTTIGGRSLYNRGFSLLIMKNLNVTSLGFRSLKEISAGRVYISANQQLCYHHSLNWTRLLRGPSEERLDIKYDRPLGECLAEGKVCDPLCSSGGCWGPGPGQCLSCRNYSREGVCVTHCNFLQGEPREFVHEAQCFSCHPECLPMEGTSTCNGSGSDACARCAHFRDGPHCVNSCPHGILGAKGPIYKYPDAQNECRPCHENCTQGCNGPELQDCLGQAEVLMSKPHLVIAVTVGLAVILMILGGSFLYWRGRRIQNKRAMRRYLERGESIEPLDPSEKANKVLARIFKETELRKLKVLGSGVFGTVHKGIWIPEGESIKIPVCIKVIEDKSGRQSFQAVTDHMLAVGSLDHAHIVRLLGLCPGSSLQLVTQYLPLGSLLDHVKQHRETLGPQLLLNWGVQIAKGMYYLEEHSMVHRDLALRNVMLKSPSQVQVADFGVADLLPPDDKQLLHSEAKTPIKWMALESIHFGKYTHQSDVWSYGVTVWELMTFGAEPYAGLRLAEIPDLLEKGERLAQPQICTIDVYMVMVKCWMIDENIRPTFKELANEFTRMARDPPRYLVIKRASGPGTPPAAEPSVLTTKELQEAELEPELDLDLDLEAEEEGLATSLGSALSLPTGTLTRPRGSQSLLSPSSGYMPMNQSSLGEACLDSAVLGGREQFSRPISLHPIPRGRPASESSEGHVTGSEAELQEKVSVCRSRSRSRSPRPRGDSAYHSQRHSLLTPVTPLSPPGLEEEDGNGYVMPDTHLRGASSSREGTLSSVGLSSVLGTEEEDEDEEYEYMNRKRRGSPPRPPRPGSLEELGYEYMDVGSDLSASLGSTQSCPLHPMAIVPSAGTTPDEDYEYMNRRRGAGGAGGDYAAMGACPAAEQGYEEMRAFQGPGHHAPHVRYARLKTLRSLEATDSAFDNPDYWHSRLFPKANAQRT

effect of a mutation on the interaction | Variant
disrupting interaction strength | S360A

Source: IntAct's records for PubMed 16832058
